Legend:
Assay type in all cases: binding
[1] = Probe fluorescence ratio response to stearate:BSA complex, relative to ADIFAB2 (ΔR/ΔRAD2); settings: fluorescence response (R-Ro) relative to ADIFAB2
[2] = Probe fluorescence ratio response to arachidonate:BSA complex, relative to ADIFAB2 (ΔR/ΔRAD2); settings: fluorescence response (R-Ro) relative to ADIFAB2; arachidonate
Outline: (§1)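 Complexes clamp unbound FFA at fixed levels (ΔR ≈0.4 by ADIFAB2, [FFAu] 100–1000 nM). Plate wells: complex or FFA-free BSA at 6 μM BSA in HEPES; probe added after background read. Ex 375/em 550 and 457 nm; ratio R = F550/F457.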

[3] = Probe fluorescence ratio response to linolenate:BSA complex, relative to ADIFAB2 (ΔR/ΔRAD2); settings: fluorescence response (R-Ro) relative to ADIFAB2; linolenate
Outline: as §1

[4] = Probe fluorescence ratio response to oleate:BSA complex, relative to ADIFAB2 (ΔR/ΔRAD2); settings: fluorescence response (R-Ro) relative to ADIFAB2; oleate
Outline: as §1

[5] = Probe fluorescence ratio response to linoleate:BSA complex, relative to ADIFAB2 (ΔR/ΔRAD2); settings: fluorescence response (R-Ro) relative to ADIFAB2; linoleate
Outline: as §1

[6] = Probe fluorescence ratio response to palmitoleate:BSA complex, relative to ADIFAB2 (ΔR/ΔRAD2); settings: fluorescence response (R-Ro) relative to ADIFAB2
[7] = Probe fluorescence ratio response to palmitate:BSA complex, relative to ADIFAB2 (ΔR/ΔRAD2); settings: fluorescence response (R-Ro) relative to ADIFAB2; palmitate
Outline: as §1

Molecule | ΔR/ΔRAD2 SA [1] | ΔR/ΔRAD2 AA [2] | ΔR/ΔRAD2 LNA [3] | ΔR/ΔRAD2 OA [4] | ΔR/ΔRAD2 LA [5] | ΔR/ΔRAD2 POA [6] | ΔR/ΔRAD2 PA [7]
L2P23G7: acrylodan-labeled rI-FABP-L72A mutein: M18 V, G31 F, F55 L, A73 WT (protein, UniProt P02693 2-132, looked up, variant M18V G31F F55L L72A, acrylodan label, acrylodan-labeled rI-FABP-L72A mutein: M18 V, G31 F, F55 L, A73 WT) Fatty acid-binding protein, …: AFDGTWKVDRNENYEKFVEKMGINVVKRKLFAHDNLKLTITQEGNKFTVKESSNLRNIDVVFELGVDFAYSAADGTELTGTWTMEGNKLVGKFKRVDNGKELIAVREISGNELIQTYTYEGVEAKRIFKKE | 0.4 | 0.9 | 1.2 | 0.6 | 1.0 | 1.4 | 1.0
L2P11B4: acrylodan-labeled rI-FABP-L72A mutein: M18 V, G31 A, F55 WT, A73 W (protein, UniProt P02693 2-132, looked up, variant M18V G31A L72A A73W, acrylodan label, acrylodan-labeled rI-FABP-L72A mutein: M18 V, G31 A, F55 WT, A73 W) Fatty acid-binding protein, …: AFDGTWKVDRNENYEKFVEKMGINVVKRKLAAHDNLKLTITQEGNKFTVKESSNFRNIDVVFELGVDFAYSAWDGTELTGTWTMEGNKLVGKFKRVDNGKELIAVREISGNELIQTYTYEGVEAKRIFKKE | 0.7 | 1.8 | 2.8 | 1.9 | 2.6 | 3.1 | 2.2
L2P2E11: acrylodan-labeled rI-FABP-L72A mutein: M18 I, G31 F, F55 WT, A73 WT (protein, UniProt P02693 2-132, looked up, variant M18I G31F L72A, acrylodan label) Fatty acid-binding protein, …: AFDGTWKVDRNENYEKFIEKMGINVVKRKLFAHDNLKLTITQEGNKFTVKESSNFRNIDVVFELGVDFAYSAADGTELTGTWTMEGNKLVGKFKRVDNGKELIAVREISGNELIQTYTYEGVEAKRIFKKE | 0.8 | 1.9 | 2.8 | 1.6 | 2.5 | 2.6 | 2.0
L2P17H10: acrylodan-labeled rI-FABP-L72A mutein: M18 G, G31 F, F55 WT, A73 L (protein, UniProt P02693 2-132, looked up, variant M18G G31F L72A A73L, acrylodan label, acrylodan-labeled rI-FABP-L72A mutein: M18 G, G31 F, F55 WT, A73 L) Fatty acid-binding protein, …: AFDGTWKVDRNENYEKFGEKMGINVVKRKLFAHDNLKLTITQEGNKFTVKESSNFRNIDVVFELGVDFAYSALDGTELTGTWTMEGNKLVGKFKRVDNGKELIAVREISGNELIQTYTYEGVEAKRIFKKE | 1.7 | 1.8 | 1.2 | 1.4 | 1.5 | 1.2 | 1.0
L2P8A5: acrylodan-labeled rI-FABP-L72A mutein: M18 V, G31 A, F55 W, A73 W (protein, UniProt P02693 2-132, looked up, variant M18V G31A F55W L72A A73W, acrylodan label) Fatty acid-binding protein, …: AFDGTWKVDRNENYEKFVEKMGINVVKRKLAAHDNLKLTITQEGNKFTVKESSNWRNIDVVFELGVDFAYSAWDGTELTGTWTMEGNKLVGKFKRVDNGKELIAVREISGNELIQTYTYEGVEAKRIFKKE | 0.4 | 1.1 | 1.9 | 0.9 | 1.6 | 2.0 | 1.5
L2P23A4: acrylodan-labeled rI-FABP-L72A mutein: M18 V, G31 I, F55 L, A73 V (protein, UniProt P02693 2-132, looked up, variant M18V G31I F55L L72A A73V, acrylodan label) Fatty acid-binding protein, …: AFDGTWKVDRNENYEKFVEKMGINVVKRKLIAHDNLKLTITQEGNKFTVKESSNLRNIDVVFELGVDFAYSAVDGTELTGTWTMEGNKLVGKFKRVDNGKELIAVREISGNELIQTYTYEGVEAKRIFKKE | 1.2 | 2.8 | 2.6 | 2.3 | 3.1 | 2.8 | 1.9
L2P8A6: acrylodan-labeled rI-FABP-L72A mutein: M18 I, G31 V, F55 V, A73 V (protein, UniProt P02693 2-132, looked up, variant M18I G31V F55V L72A A73V, acrylodan label) Fatty acid-binding protein, …: AFDGTWKVDRNENYEKFIEKMGINVVKRKLVAHDNLKLTITQEGNKFTVKESSNVRNIDVVFELGVDFAYSAVDGTELTGTWTMEGNKLVGKFKRVDNGKELIAVREISGNELIQTYTYEGVEAKRIFKKE | 0.2 | 0.6 | 1.2 | 0.4 | 0.8 | 1.3 | 1.0
L2P22G6: acrylodan-labeled rI-FABP-L72A mutein: M18 I, G31 Y, F55 WT, A73 G (protein, UniProt P02693 2-132, looked up, variant M18I G31Y L72A A73G, acrylodan label, acrylodan-labeled rI-FABP-L72A mutein: M18 I, G31 Y, F55 WT, A73 G) Fatty acid-binding protein, …: AFDGTWKVDRNENYEKFIEKMGINVVKRKLYAHDNLKLTITQEGNKFTVKESSNFRNIDVVFELGVDFAYSAGDGTELTGTWTMEGNKLVGKFKRVDNGKELIAVREISGNELIQTYTYEGVEAKRIFKKE | 0.9 | 1.8 | 2.7 | 1.6 | 2.6 | 2.6 | 1.9
L2P18H12: acrylodan-labeled rI-FABP-L72A mutein: M18 I, G31 V, F55 WT, A73 G (protein, UniProt P02693 2-132, looked up, variant M18I G31V L72A A73G, acrylodan label, acrylodan-labeled rI-FABP-L72A mutein: M18 I, G31 V, F55 WT, A73 G) Fatty acid-binding protein, …: AFDGTWKVDRNENYEKFIEKMGINVVKRKLVAHDNLKLTITQEGNKFTVKESSNFRNIDVVFELGVDFAYSAGDGTELTGTWTMEGNKLVGKFKRVDNGKELIAVREISGNELIQTYTYEGVEAKRIFKKE | 0.5 | 1.3 | 1.9 | 1.0 | 1.7 | 2.1 | 1.6
L2P22E6: acrylodan-labeled rI-FABP-L72A mutein: M18 V, G31 A, F55 I, A73 W (protein, UniProt P02693 2-132, looked up, variant M18V G31A F55I L72A A73W, acrylodan label, acrylodan-labeled rI-FABP-L72A mutein: M18 V, G31 A, F55 I, A73 W) Fatty acid-binding protein, …: AFDGTWKVDRNENYEKFVEKMGINVVKRKLAAHDNLKLTITQEGNKFTVKESSNIRNIDVVFELGVDFAYSAWDGTELTGTWTMEGNKLVGKFKRVDNGKELIAVREISGNELIQTYTYEGVEAKRIFKKE | 0.4 | 1.0 | 1.6 | 0.8 | 1.3 | 1.6 | 1.3
L2P12C5: acrylodan-labeled rI-FABP-L72A mutein: M18 I, G31 I, F55 M, A73 I (protein, UniProt P02693 2-132, looked up, variant M18I G31I F55M L72A A73I, acrylodan label) Fatty acid-binding protein, …: AFDGTWKVDRNENYEKFIEKMGINVVKRKLIAHDNLKLTITQEGNKFTVKESSNMRNIDVVFELGVDFAYSAIDGTELTGTWTMEGNKLVGKFKRVDNGKELIAVREISGNELIQTYTYEGVEAKRIFKKE | 0.4 | 1.3 | 1.7 | 0.8 | 1.5 | 1.9 | 1.5
L2P4C5: acrylodan-labeled rI-FABP-L72A mutein: M18 I, G31 Y, F55 WT, A73 WT (protein, UniProt P02693 2-132, looked up, variant M18I G31Y L72A, acrylodan label) Fatty acid-binding protein, …: AFDGTWKVDRNENYEKFIEKMGINVVKRKLYAHDNLKLTITQEGNKFTVKESSNFRNIDVVFELGVDFAYSAADGTELTGTWTMEGNKLVGKFKRVDNGKELIAVREISGNELIQTYTYEGVEAKRIFKKE | 1.0 | 2.2 | 2.8 | 2.1 | 2.8 | 2.6 | 1.8
